Measured values from article PMC4909229, “Characterization of Staphylococcus aureus Primosomal DnaD Protein: Highly Conserved C-Terminal Region Is Crucial for ssDNA and PriA Helicase Binding but Not for DnaA Protein-Binding and Self-Tetrameri”.

B1: dT65 (ssDNA)
DNA: TTTTTTTTTTTTTTTTTTTTTTTTTTTTTTTTTTTTTTTTTTTTTTTTTTTTTTTTTTTTTTTTT
B2: dT40 (ssDNA)
DNA: TTTTTTTTTTTTTTTTTTTTTTTTTTTTTTTTTTTTTTTT

Columns and labels:
SaDnaD1-204 = target: T1, SaDnaD1-204 (Staphylococcus aureus subsp. aureus ED98, UniProt Q9EUT0 1-204, del205-228); assay: tryptophan fluorescence quenching; DNA:protein ratio 1; EMSA: 20 mM Tris-HCl pH 8.0, 100 mM NaCl, 25 C, 30 min, 1.7 nM DNA, gel at 4 C in TBE; fluorescence: 20 mM Tris-HCl pH 8.0, 200 or 500 mM NaCl, 0.1 uM tetramer; conditions: protein: recombinant; tags: C-terminal His tag (pET21e); chain copies: 4; label: 5'-32P (EMSA); unlabeled in fluorescence titration
T1 sequence: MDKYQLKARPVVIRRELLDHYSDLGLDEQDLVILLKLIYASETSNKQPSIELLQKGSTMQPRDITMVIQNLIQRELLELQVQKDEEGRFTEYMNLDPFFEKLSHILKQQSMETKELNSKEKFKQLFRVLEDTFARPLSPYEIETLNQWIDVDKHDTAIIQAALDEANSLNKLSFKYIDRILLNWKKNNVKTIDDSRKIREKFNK

SaDnaD1-195 [1] = target: T2, SaDnaD1-195 (Staphylococcus aureus subsp. aureus ED98, UniProt Q9EUT0 1-195, del196-228); assay: as above; conditions: protein: recombinant; tags: C-terminal His tag (pET21e); chain copies: 4; label: 5'-32P (EMSA); unlabeled in fluorescence titration
T2 sequence: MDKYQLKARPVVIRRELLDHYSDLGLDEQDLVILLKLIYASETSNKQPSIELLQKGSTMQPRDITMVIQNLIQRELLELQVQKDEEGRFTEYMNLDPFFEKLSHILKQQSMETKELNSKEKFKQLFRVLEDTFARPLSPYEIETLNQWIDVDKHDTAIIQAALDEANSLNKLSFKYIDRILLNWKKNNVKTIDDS

SaDnaD1-200 [2] = target: T3, SaDnaD1-200 (Staphylococcus aureus subsp. aureus ED98, UniProt Q9EUT0 1-200, del201-228); assay: as above; conditions: protein: recombinant; tags: C-terminal His tag (pET21e); chain copies: 4; label: 5'-32P (EMSA); unlabeled in fluorescence titration
T3 sequence: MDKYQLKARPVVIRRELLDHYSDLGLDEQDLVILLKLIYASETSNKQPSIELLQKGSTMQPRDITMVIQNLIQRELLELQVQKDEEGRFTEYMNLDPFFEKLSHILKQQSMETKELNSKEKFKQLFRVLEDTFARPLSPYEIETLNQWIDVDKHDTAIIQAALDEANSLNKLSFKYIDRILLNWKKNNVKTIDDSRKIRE

SaDnaD1-195 [3] = target: T2, SaDnaD1-195; assay: EMSA; EMSA: 20 mM Tris-HCl pH 8.0, 100 mM NaCl, 25 C, 30 min, 1.7 nM DNA, gel at 4 C in TBE; fluorescence: 20 mM Tris-HCl pH 8.0, 200 or 500 mM NaCl, 0.1 uM tetramer; conditions: protein: recombinant; tags: C-terminal His tag (pET21e); chain copies: 4; label: 5'-32P
SaDnaD1-200 [4] = target: T3, SaDnaD1-200; assay: as above; conditions: protein: recombinant; tags: C-terminal His tag (pET21e); chain copies: 4; label: 5'-32P

Row | Binder | binding signal (SaDnaD1-204) | binding signal (SaDnaD1-195 [1]) | binding signal (SaDnaD1-200 [2]) | binding result (SaDnaD1-195 [3]) | binding result (SaDnaD1-200 [4])
1 | B1 | ~20 % quenching | < 5 % quenching | < 10 % quenching | – | –
2 | B2 | – | – | – | no binding | no binding
